# According to paper PMC2807882, “Conservation of DNA-binding specificity and oligomerisation properties within the p53 family”:
# T1: Drp53 (Danio rerio, UniProt P79734 1-373)
# T1 sequence: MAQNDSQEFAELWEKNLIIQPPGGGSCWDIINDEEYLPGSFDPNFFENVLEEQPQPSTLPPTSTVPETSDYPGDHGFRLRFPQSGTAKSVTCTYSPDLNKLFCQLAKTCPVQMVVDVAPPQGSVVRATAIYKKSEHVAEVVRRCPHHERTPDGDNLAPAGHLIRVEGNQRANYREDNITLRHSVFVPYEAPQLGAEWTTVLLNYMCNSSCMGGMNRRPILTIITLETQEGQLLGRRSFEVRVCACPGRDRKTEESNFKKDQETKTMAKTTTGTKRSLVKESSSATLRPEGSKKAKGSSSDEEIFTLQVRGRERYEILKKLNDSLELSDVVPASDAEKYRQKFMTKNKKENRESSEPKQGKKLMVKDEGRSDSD
# T2: ΔNp73β (Homo sapiens, UniProt O15350-9 1-450)
# T2 sequence: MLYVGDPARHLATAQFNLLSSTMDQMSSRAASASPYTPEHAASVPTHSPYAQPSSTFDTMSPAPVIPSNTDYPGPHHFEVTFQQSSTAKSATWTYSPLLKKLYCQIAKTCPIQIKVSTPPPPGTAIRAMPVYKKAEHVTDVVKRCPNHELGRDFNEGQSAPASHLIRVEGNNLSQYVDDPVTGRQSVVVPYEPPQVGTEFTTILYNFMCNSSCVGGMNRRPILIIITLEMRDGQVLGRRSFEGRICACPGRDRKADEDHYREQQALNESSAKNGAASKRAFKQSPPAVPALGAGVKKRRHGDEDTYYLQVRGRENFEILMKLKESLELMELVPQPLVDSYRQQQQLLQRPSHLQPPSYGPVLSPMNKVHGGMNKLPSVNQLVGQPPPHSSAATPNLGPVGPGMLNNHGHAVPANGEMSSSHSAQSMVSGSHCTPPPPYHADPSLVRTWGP
# T3: ΔNp63γ (Homo sapiens, UniProt Q9H3D4-6 1-393)
# T3 sequence: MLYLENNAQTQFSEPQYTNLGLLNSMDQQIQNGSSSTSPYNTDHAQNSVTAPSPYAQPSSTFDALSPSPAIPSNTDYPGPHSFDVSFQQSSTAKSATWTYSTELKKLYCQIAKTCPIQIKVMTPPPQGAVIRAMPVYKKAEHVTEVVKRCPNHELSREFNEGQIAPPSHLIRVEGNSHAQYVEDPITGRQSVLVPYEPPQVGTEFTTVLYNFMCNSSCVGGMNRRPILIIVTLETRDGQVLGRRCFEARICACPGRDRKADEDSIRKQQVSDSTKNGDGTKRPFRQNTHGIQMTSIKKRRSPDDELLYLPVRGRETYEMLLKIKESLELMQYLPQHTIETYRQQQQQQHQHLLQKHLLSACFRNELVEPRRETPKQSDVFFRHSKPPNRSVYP
# T4: ΔNp63α (Homo sapiens, UniProt Q9H3D4-2 1-586)
# T4 sequence: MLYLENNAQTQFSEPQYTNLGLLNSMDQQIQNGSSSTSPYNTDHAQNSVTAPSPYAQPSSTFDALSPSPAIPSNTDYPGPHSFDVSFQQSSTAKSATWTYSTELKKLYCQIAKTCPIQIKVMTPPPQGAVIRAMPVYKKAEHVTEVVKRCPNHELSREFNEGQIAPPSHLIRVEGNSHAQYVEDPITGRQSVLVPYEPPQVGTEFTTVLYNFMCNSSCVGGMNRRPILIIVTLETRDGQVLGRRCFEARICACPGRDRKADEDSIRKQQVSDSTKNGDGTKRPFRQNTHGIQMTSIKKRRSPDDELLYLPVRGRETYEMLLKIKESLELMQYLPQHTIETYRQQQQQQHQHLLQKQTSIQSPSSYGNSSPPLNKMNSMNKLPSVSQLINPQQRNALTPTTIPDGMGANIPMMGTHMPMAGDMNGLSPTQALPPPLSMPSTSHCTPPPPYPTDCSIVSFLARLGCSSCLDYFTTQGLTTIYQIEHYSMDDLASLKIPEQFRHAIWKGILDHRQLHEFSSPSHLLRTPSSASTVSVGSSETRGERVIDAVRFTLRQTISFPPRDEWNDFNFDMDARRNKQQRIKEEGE
# Assays:
# Drp53 [1] = molecular target: T1, Drp53; assay: fluorescence anisotropy competition titration; 25 mM sodium phosphate (purification buffer pH 7.2), 225 mM NaCl, 10% v/v glycerol, 5 mM DTT, 0.2 mg/mL BSA, 22 C; conditions: protein: recombinant; tags: N-terminal 6xHis-lipoyl-TEV tag, cleaved; chain copies: 4
# ΔNp73β = molecular target: T2, ΔNp73β; assay: as above; conditions: protein: recombinant; tags: N-terminal 6xHis-lipoyl-TEV tag, cleaved; chain copies: 4
# Xlp53 [2] = molecular target: T5, Xlp53 (Xenopus laevis, UniProt Q7T1D0 1-362); assay: anisotropy competition; 25 mM NaPi, 225 mM NaCl, 10% v/v glycerol, 5 mM DTT, 0.2 mg/mL BSA, 22°C; 20 nM labelled DNA; pH not stated for the binding assay; conditions: protein: recombinant; tags: N-terminal 6xHis-lipoyl-TEV tag, cleaved; chain copies: 4
# ΔNp63γ = molecular target: T3, ΔNp63γ; assay: fluorescence anisotropy direct titration; 25 mM sodium phosphate (purification buffer pH 7.2), 225 mM NaCl, 10% v/v glycerol, 5 mM DTT, 0.2 mg/mL BSA, 22 C; conditions: protein: recombinant; tags: N-terminal 6xHis-lipoyl-TEV tag, cleaved; chain copies: 4; label: 5'-Alexa488
# Drp53 [3] = molecular target: T1, Drp53; assay: as above; conditions: protein: recombinant; tags: N-terminal 6xHis-lipoyl-TEV tag, cleaved; chain copies: 4; label: 5'-Alexa488
# Hsp53 = Hsp53 (Homo sapiens, UniProt P04637 1-393); assay: as above; conditions: protein: recombinant; tags: N-terminal 6xHis-lipoyl-TEV tag, cleaved; chain copies: 4; label: 5'-Alexa488
# ΔNp63α = molecular target: T4, ΔNp63α; assay: as above; conditions: protein: recombinant; tags: N-terminal 6xHis-lipoyl-TEV tag, cleaved; chain copies: 4; label: 5'-Alexa488
# Xlp53 [4] = molecular target: T5, Xlp53; assay: as above; conditions: protein: recombinant; tags: N-terminal 6xHis-lipoyl-TEV tag, cleaved; chain copies: 4; label: 5'-Alexa488
# T5 sequence (Q7T1D0 entry or part of it): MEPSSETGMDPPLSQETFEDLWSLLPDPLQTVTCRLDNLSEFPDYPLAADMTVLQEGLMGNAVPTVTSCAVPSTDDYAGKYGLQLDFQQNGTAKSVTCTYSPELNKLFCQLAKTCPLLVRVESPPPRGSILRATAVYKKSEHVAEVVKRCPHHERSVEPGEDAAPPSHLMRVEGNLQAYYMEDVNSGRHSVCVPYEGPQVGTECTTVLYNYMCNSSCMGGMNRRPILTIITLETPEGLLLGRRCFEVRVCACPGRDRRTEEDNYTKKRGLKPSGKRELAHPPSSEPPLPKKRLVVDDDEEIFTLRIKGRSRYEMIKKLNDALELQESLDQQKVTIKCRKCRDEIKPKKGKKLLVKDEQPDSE
# Sequence of Hsp53 (P04637 whole entry): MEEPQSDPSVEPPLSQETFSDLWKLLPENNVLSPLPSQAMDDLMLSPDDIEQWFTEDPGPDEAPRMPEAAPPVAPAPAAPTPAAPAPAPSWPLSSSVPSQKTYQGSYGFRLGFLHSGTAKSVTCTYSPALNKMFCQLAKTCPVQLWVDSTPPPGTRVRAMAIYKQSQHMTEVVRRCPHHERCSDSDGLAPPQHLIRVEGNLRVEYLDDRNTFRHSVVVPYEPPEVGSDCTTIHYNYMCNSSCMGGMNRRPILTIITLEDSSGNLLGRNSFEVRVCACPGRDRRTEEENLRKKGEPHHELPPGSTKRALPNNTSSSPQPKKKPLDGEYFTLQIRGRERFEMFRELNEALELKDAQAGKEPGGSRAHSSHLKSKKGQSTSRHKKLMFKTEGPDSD
Binder,Kd (Drp53 [1]),Kd (ΔNp73β),Kd (Xlp53 [2]),Kd (ΔNp63γ),Kd (Drp53 [3]),Kd (Hsp53),Kd (ΔNp63α),Kd (Xlp53 [4])
Ref competitor (dsDNA) DNA 1: CGCGGACATGTCCGGACATGTCCCGC DNA 2: GCGGGACATGTCCGGACATGTCCGCG,38 nM,24 nM,-7.08 log10(M),–,–,–,–,–
Ref_Alexa488 (dsDNA) DNA 1: GGACATGTCCGGACATGTCC DNA 2: GGACATGTCCGGACATGTCC,–,–,–,67.6 nM,63.1 nM,56.2 nM,75.9 nM,47.9 nM
